Assay results from patent US5714144A, “Human tissue-type plasminogen activator variant” (Genentech, Inc., priority 1995, dated 1998).

Legend:
[1] = removal of sialic acid or chemical modification of carbohydrate; cited from earlier work
fibrin = settings: versus t-PA control

B1: ceruloplasmin: ceruloplasmin after removal of sialic acid (protein, UniProt P00450 20-1065, looked up)
Ceruloplasmin: KEKHYYIGIIETTWDYASDHGEKKLISVDTEHSNIYLQNGPDRIGRLYKKALYLQYTDETFRTTIEKPVWLGFLGPIIKAETGDKVYVHLKNLASRPYTFHSHGITYYKEHEGAIYPDNTTDFQRADDKVYPGEQYTYMLLATEEQSPGEGDGNCVTRIYHSHIDAPKDIASGLIGPLIICKKDSLDKEKEKHIDREFVVMFSVVDENFSWYLEDNIKTYCSEPEKVDKDNEDFQESNRMYSVNGYTFGSLPGLSMCAEDRVKWYLFGMGNEVDVHAAFFHGQALTNKNYRIDTINLFPATLFDAYMVAQNPGEWMLSCQNLNHLKAGLQAFFQVQECNKSSSKDNIRGKHVRHYYIAAEEIIWNYAPSGIDIFTKENLTAPGSDSAVFFEQGTTRIGGSYKKLVYREYTDASFTNRKERGPEEEHLGILGPVIWAEVGDTIRVTFHNKGAYPLSIEPIGVRFNKNNEGTYYSPNYNPQSRSVPPSASHVAPTETFTYEWTVPKEVGPTNADPVCLAKMYYSAVEPTKDIFTGLIGPMKICKKGSLHANGRQKDVDKEFYLFPTVFDENESLLLEDNIRMFTTAPDQVDKEDEDFQESNKMHSMNGFMYGNQPGLTMCKGDSVVWYLFSAGNEADVHGIYFSGNTYLWRGERRDTANLFPQTSLTLHMWPDTEGTFNVECLTTDHYTGGMKQKYTVNQCRRQSEDSTFYLGERTYYIAAVEVEWDYSPQREWEKELHHLQEQNVSNAFLDKGEFYIGSKYKKVVYRQYTDSTFRVPVERKAEEEHLGILGPQLHADVGDKVKIIFKNMATRPYSIHAHGVQTESSTVTPTLPGETLTYVWKIPERSGAGTEDSACIPWAYYSTVDQVKDLYSGLIGPLIVCRRPYLKVFNPRRKLEFALLFLVFDENESWYLDDNIKTYSDHPEKVNKDDEEFIESNKMHAINGRMFGNLQGLTMHVGDEVNWYLMGMGNEIDLHTVHFHGHSFQYKHRGVYSSDVFDIFPGTYQTLEMFPRTPGIWLLHCHVTDHIHAGMETTYTVLQNEDTKSG
modifications: desialylated
notes: ceruloplasmin after removal of sialic acid
Question: Which half-life change [1] does the source give for B1 here?
Answer: The half-life change was “decreases its half-life dramatically”.

B2: glutamine117 glutamic acid275 t-PA: t-PA Carbohydrate Variant Gln117 Glu275 Equivalent (protein, UniProt P00750 36-562, looked up, variant N117Q R275E)
Tissue-type plasminogen …: SYQVICRDEKTQMIYQQHQSWLRPVLRSNRVEYCWCNSGRAQCHSVPVKSCSEPRCFNGGTCQQALYFSDFVCQCPEGFAGKCCEIDTRATCYEDQGISYRGTWSTAESGAECTNWQSSALAQKPYSGRRPDAIRLGLGNHNYCRNPDRDSKPWCYVFKAGKYSSEFCSTPACSEGNSDCYFGNGSAYRGTHSLTESGASCLPWNSMILIGKVYTAQNPSAQALGLGKHNYCRNPDGDAKPWCHVLKNRRLTWEYCDVPSCSTCGLRQYSQPQFEIKGGLFADIASHPWQAAIFAKHRRSPGERFLCGGILISSCWILSAAHCFQERFPPHHLTVILGRTYRVVPGEEEQKFEVEKYIVHKEFDDDTYDNDIALLQLKSDSSRCAQESSVVRTVCLPPADLQLPDWTECELSGYGKHEALSPFYSERLKEAHVRLYPSSRCTSQHLLNRTVTDNMLCAGDTRSGGPQANLHDACQGDSGGPLVCLNDGRMTLVGIISWGLGCGQKDVPGVYTKVTNYLDWIRDNMRP
Question: Which “fibrin stimulation and specific activity” value (fibrin) does the source give for B2 here?
Answer: Its value is “superior to t-PA control in fibrin stimulation and specific activity”.
